# Residue numbers refer to the chain shown, from its start.
# B1: 04-079: rat anti-human GPR20 antibody; heavy chain SEQ ID NO: 12, light chain SEQ ID NO: 17 (antibody, listed as Rattus norvegicus)
# heavy: MEWNWVFLFLLSVTAVVHSQVQLQQSGAELAKPGSSVKISCKASGYTFTSYYITWIKQTTGQGLKYIGYINPGSGHTNYNEKFKGKATLTVDKSSSTAFMQLSSLTPDDSAVYYCARGAGGFLRIISKFDYWGQGVMVTVSSAQTTAPSVYPLAPGCGDTTSSTVTLGCLVKGYFPEPVTVTWNSGALSSDVHTFPAVLQSGLYTLTSSVTSSTWPSQTVTCNVAHPASSTKVDKKVERRNGGIGHKCPTCPTCHKCPVPELLGGPSVFIFPPKPKDILLISQNAKVTCVVVDVSEEEPDVQFSWFVNNVEVHTAQTQPREEQYNSTFRVVSALPIQHQDWMSGKEFKCKVNNKALPSPIEKTISKPKGLVRKPQVYVMGPPTEQLTEQTVSLTCLTSGFLPNDIGVEWTSNGHIEKNYKNTEPVMDSDGSFFMYSKLNVERSRWDSRAPFVCSVVHEGLHNHHVEKSISRPPGK
# light: METDRLLLWVLLLWVPGSTGDTVLTQSPALAVSLGQRVTISCRASKSVSTYMHWYQQRSGQQPKLLIYSASNLESGVPSRFSGSGSGTDFTLTIDPVKADDITNYYCQQSNELPYTFGAGTKLELKRADAAPTVSIFPPSTEQLATGGASVVCLMNNFYPRDISVKWKIDGTERRDGVLDSVTDQDSKDSTYSMSSTLSLTKADYESHNLYTCEVVHKTSSSPVVKSFNRNEC
# modifications: SIGNAL (1)..(19); SIGNAL (1)..(20)
# B2: 04-126: rat anti-human GPR20 antibody; heavy chain SEQ ID NO: 22, light chain SEQ ID NO: 27 (antibody, listed as Rattus norvegicus)
# heavy: B1 heavy with V16E, Q24R, T54I, I56M, T60A, K65Q, I67V, A119T
# light: B1 light with N72T, K98E, T103A
# modifications: SIGNAL (1)..(19); SIGNAL (1)..(20)
# B3: 04-046: rat anti-human GPR20 antibody; heavy chain SEQ ID NO: 2, light chain SEQ ID NO: 7 (antibody, listed as Rattus norvegicus)
# heavy: B1 heavy with V16E, T54S, Y69F, V112I, S127T
# light: B1 light with M52I, K98E, A99P, T103A, S110I
# modifications: SIGNAL (1)..(19); SIGNAL (1)..(20)
# Experiments:
# [1] = target: T1, human GPR20 with EC1 substituted with a mouse GPR20-derived sequence (Mus musculus, UniProt Q8BYC4, A277V/A334G/A336G/DEL187-187/DEL317-317/F111Y/F318R/G190S/I170A/I299V/I338H/I343A/K166R/K271H/K319E/K330R/M323G/N268D/P337R/P351A/Q152R/R229H/R314H/S188T/S192P/S345P/T332S/T347A/T353A/T60A/T88I/V178A/V247I/V269M/V56A/W159C/Y312G); assay: Cell-ELISA binding to human/mouse chimeric GPR20 (EC1 substituted); conditions: hGPR20_mECD1, FIG. 22
# T1 construct: expressed in transfected cells; host or cells: 293α cells, transient
# T1 sequence (Q8BYC4 with tags, fused parts or gaps with the stated changes): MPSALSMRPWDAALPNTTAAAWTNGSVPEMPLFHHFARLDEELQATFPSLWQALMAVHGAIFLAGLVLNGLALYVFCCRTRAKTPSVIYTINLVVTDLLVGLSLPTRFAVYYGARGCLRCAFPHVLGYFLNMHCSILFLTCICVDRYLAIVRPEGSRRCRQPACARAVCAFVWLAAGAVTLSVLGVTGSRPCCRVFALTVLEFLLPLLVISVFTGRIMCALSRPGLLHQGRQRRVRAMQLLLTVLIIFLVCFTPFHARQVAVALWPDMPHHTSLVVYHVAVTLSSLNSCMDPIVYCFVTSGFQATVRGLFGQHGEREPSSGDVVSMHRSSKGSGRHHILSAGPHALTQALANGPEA
# Procedure: (§1) The culture supernatant of the 293a cells transfected with the expression vector prepared in Example 1)-4-1 was removed, and the culture supernatant from each hybridoma was then added to the 293a cells transfected either with pcDNA3.1-hGPR20 or pcDNA3.1. The cells were left standing at 4° C. for 1 hour. The cells in the wells were washed once with PBS (+) supplemented with 5% FBS, and thereafter, Anti-Rat IgG-Peroxidase antibody produced in rabbit (Sigma-Aldrich Co. LLC) that had been 500-fold diluted with PBS (+) supplemented with 5% FBS was added to the wells. The cells were left standing at 4° C. for 1 hour. The cells in the wells were washed three times with PBS (+) supplemented with 5% FBS, and thereafter, OPD chromogenic solution (which had been prepared by dissolving o-phenylenediamine dihydrochloride (Wako Pure Chemical Industries, Ltd.) and H2O2 in an OPD solution (0.05 M trisodium citrate, 0.1 M disodium hydrogen phosphate 12-water; pH 4.5), so that the substances became 0.4 mg/ml and 0.6% (v/v), respectively) was added in an amount of 100 μL/well to the wells. A coloring reaction was carried out with occasional stirring. Thereafter, 1 M HCl was added to the plate (100 μL/well) to terminate the coloring reaction, followed by measurement of the absorbance at 490 nm using a plate reader (ENVISION: PerkinElmer, Inc.).
# An expression vector for human GPR20 with EC1 substituted with a mouse GPR20-derived sequence was constructed using an In-Fusion (registered trademark) HD Cloning Kit (Clontech Laboratories, Inc.). Specifically, using the full-length human GPR20 expression vector pcDNA3.1-hGPR20 produced in Example 1 as a template, a PCR reaction was carried out with the primer set given below and KOD FX DNA polymerase (Toyobo Co., Ltd.) at 10 cycles each involving 98° C. for 10 seconds, 58° C. for 30 seconds, and 68° C. for 7 minutes to amplify a DNA fragment comprising the vector sequence. […]
# mouse GPR20 = target: T2, mouse GPR20 (Mus musculus, UniProt Q8BYC4); assay: Cell-ELISA binding to 293α cells expressing mouse GPR20; conditions: transiently transfected 293α cells, FIG. 22
# T2 construct: using the full-length mouse GPR20 expression vector pcDNA-mGPR20 constructed in 4)-1 as a template; expressed in transfected cells; host or cells: 293α cells, transient
# T2 sequence (Q8BYC4 whole entry): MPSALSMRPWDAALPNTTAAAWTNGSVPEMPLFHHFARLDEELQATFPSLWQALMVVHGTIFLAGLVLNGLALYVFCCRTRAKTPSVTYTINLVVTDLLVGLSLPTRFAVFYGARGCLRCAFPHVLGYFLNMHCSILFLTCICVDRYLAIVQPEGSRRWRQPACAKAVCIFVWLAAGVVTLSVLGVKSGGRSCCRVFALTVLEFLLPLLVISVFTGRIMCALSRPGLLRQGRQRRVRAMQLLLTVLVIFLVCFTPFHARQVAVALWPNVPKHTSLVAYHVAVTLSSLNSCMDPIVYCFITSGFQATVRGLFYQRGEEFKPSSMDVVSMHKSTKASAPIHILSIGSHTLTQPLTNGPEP
# Procedure: as §1
# According to a method known to a person skilled in the art, cDNA was artificially synthesized based on Ref Seq sequence NM_173365 of mouse GPR20, and then cloned into pcDNA-DEST40 expression vector (Invitrogen Corp.) to construct mouse GPR20 expression vector pcDNA-mGPR20.
# The binding activity of the anti-GPR20 antibodies 04-046, 04-079, 04-126, 04-021, 13-024, and 13-048 against 293a cells into which different GPR20 expression vectors were transiently introduced was examined by the same method as the Cell-ELISA method shown in Example 1. […]
Molecule,binding activity after substituting EC1 of human GPR20 with that of mouse-derived GPR20 [1],binding activity against mouse GPR20 (mouse GPR20)
B1,lost binding activity,did not bind
B2,lost binding activity,did not bind
B3,lost binding activity,did not bind

# Reference: patent publication US11434289B2, “Anti-GPR20 antibody and anti-GPR20 antibody-drug conjugate” (DAIICHI SANKYO COMPANY, LIMITED, priority 2017, dated 2022)
